These results are taken from IntAct's records for PubMed 25910212.

B1: U4/U6 small nuclear ribonucleoprotein Prp31 (Homo sapiens), Q8WWY3 (parent)
chain: MSLADELLADLEEAAEEEEGGSYGEEEEEPAIEDVQEETQLDLSGDSVKTIAKLWDSKMFAEIMMKIEEYISKQAKASEVMGPVEAAPEYRVIVDANNLTVEIENELNIIHKFIRDKYSKRFPELESLVPNALDYIRTVKELGNSLDKCKNNENLQQILTNATIMVVSVTASTTQGQQLSEEELERLEEACDMALELNASKHRIYEYVESRMSFIAPNLSIIIGASTAAKIMGVAGGLTNLSKMPACNIMLLGAQRKTLSGFSSTSVLPHTGYIYHSDIVQSLPPDLRRKAARLVAAKCTLAARVDSFHESTEGKVGYELKDEIERKFDKWQEPPPVKQVKPLPAPLDGQRKKRGGRRYRKMKERLGLTEIRKQANRMSFGEIEEDAYQEDLGFSLGHLGKSGSGRVRQTQVNEATKARISKTLQRTLQKQSVVYGGKSTIRDRSSGTASSVAFTPLQGLEIVNPQAAEKKVAEANQKYFSSMAEFLKVKGEKSGLMST
partner: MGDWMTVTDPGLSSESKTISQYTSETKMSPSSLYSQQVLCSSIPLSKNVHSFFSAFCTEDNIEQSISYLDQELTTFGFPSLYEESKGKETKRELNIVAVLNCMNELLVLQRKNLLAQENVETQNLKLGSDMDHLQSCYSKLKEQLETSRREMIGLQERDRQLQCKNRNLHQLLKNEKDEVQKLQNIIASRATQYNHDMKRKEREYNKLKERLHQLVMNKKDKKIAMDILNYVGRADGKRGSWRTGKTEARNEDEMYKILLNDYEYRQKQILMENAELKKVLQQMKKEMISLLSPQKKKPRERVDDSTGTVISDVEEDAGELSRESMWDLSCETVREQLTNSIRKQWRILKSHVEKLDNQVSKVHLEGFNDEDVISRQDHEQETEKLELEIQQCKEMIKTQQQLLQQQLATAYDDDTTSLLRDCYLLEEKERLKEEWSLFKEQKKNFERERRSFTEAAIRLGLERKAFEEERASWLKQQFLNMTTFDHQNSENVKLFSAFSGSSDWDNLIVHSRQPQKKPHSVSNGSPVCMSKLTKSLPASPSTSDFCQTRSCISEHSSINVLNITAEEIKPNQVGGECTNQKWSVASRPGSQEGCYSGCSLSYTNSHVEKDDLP
B2: U4/U6 small nuclear ribonucleoprotein Prp31 (Homo sapiens), Q8WWY3 (parent)
chain: B1 chain
partner: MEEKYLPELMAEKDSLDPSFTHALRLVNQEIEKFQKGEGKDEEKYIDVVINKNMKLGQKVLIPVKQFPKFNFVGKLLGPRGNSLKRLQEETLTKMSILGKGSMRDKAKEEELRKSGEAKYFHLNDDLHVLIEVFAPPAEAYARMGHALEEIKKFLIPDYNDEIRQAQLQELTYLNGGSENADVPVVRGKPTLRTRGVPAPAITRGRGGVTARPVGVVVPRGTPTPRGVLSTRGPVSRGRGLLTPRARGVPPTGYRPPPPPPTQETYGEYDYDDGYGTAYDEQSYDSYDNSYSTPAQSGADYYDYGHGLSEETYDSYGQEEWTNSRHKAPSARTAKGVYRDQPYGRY
B3: ATP synthase mitochondrial F1 complex assembly factor 2 (Homo sapiens), Q8N5M1 (parent)
chain: MWRSCLRLRDGGRRLLNRPAGGPSASMSPGPTIPSPARAYAPPTERKRFYQNVSITQGEGGFEINLDHRKLKTPQAKLFTVPSEALAIAVATEWDSQQDTIKYYTMHLTTLCNTSLDNPTQRNKDQLIRAAVKFLDTDTICYRVEEPETLVELQRNEWDPIIEWAEKRYGVEISSSTSIMGPSIPAKTREVLVSHLASYNTWALQGIEFVAAQLKSMVLTLGLIDLRLTVEQAVLLSRLEEEYQIQKWGNIEWAHDYELQELRARTAAGTLFIHLCSESTTVKHKLLKE
B4: Fructose-1,6-bisphosphatase 1 (Homo sapiens), P09467 (parent)
chain: MADQAPFDTDVNTLTRFVMEEGRKARGTGELTQLLNSLCTAVKAISSAVRKAGIAHLYGIAGSTNVTGDQVKKLDVLSNDLVMNMLKSSFATCVLVSEEDKHAIIVEPEKRGKYVVCFDPLDGSSNIDCLVSVGTIFGIYRKKSTDEPSEKDALQPGRNLVAAGYALYGSATMLVLAMDCGVNCFMLDPAIGEFILVDKDVKIKKKGKIYSLNEGYARDFDPAVTEYIQRKKFPPDNSAPYGARYVGSMVADVHRTLVYGGIFLYPANKKSPNGKLRLLYECNPMAYVMEKAGGMATTGKEAVLDVIPTDIHQRAPVILGSPDDVLEFLKVYEKHSAQ
partner: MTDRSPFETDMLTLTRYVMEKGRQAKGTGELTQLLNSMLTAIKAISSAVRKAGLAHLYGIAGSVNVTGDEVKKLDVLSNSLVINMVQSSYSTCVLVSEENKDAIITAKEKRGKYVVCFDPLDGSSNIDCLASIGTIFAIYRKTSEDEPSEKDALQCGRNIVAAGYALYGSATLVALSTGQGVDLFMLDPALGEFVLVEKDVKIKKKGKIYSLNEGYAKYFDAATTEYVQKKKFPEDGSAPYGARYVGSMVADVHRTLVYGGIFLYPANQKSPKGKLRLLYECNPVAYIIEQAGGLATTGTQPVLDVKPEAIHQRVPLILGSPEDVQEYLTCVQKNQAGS
B5: TERF1-interacting nuclear factor 2 (Homo sapiens), Q9BSI4 (parent)
chain: MATPLVAGPAALRFAAAASWQVVRGRCVEHFPRVLEFLRSLRAVAPGLVRYRHHERLCMGLKAKVVVELILQGRPWAQVLKALNHHFPESGPIVRDPKATKQDLRKILEAQETFYQQVKQLSEAPVDLASKLQELEQEYGEPFLAAMEKLLFEYLCQLEKALPTPQAQQLQDVLSWMQPGVSITSSLAWRQYGVDMGWLLPECSVTDSVNLAEPMEQNPPQQQRLALHNPLPKAKPGTHLPQGPSSRTHPEPLAGRHFNLAPLGRRRVQSQWASTRGGHKERPTVMLFPFRNLGSPTQVISKPESKEEHAIYTADLAMGTRAASTGKSKSPCQTLGGRALKENPVDLPATEQKENCLDCYMDPLRLSLLPPRARKPVCPPSLCSSVITIGDLVLDSDEEENGQGEGKESLENYQKTKFDTLIPTLCEYLPPSGHGAIPVSSCDCRDSSRPL
B6: Caspase-10 (Homo sapiens), Q92851-4 (parent)
chain: MKSQGQHWYSSSDKNCKVSFREKLLIIDSNLGVQDVENLKFLCIGLVPNKKLEKSSSASDVFEHLLAEDLLSEEDPFFLAELLYIIRQKKLLQHLNCTKEEVERLLPTRQRVSLFRNLLYELSEGIDSENLKDMIFLLKDSLPKTEMTSLSFLAFLEKQGKIDEDNLTCLEDLCKTVVPKLLRNIEKYKREKAIQIVTPPVDKEAESYQGEEELVSQTDVKTFLEALPQESWQNKHAGSNGNRATNGAPSLVSRGMQGASANTLNSETSTKRAAVYRMNRNHRGLCVIVNNHSFTSLKDRQGTHKDAEILSHVFQWLGFTVHIHNNVTKVEMEMVLQKQKCNPAHADGDCFVFCILTHGRFGAVYSSDEALIPIREIMSHFTALQCPRLAEKPKLFFIQACQGEEIQPSVSIEADALNPEQAPTSLQDSIPAEADFLLGLATVPGYVSFRHVEEGSWYIQSLCNHLKKLVPRHEDILSILTAVNDDVSRRVDKQGTKKQMPQPAFTLRKKLVFPVPLDALSL
B7: EF-hand domain-containing protein 1 (Homo sapiens), Q5JVL4 (parent)
chain: MVSNPVHGLPFLPGTSFKDSTKTAFHRSQTLSYRNGYAIVRRPTVGIGGDRLQFNQLSQAELDELASKAPVLTYGQPKQAPPADFIPAHVAFDKKVLKFDAYFQEDVPMSTEEQYRIRQVNIYYYLEDDSMSVIEPVVENSGILQGKLIKRQRLAKNDRGDHYHWKDLNRGINITIYGKTFRVVDCDQFTQVFLESQGIELNPPEKMALDPYTELRKQPLRKYVTPSDFDQLKQFLTFDKQVLRFYAIWDDTDSMYGECRTYIIHYYLMDDTVEIREVHERNDGRDPFPLLMNRQRVPKVLVENAKNFPQCVLEISDQEVLEWYTAKDFIVGKSLTILGRTFFIYDCDPFTRRYYKEKFGITDLPRIDVSKREPPPVKQELPPYNGFGLVEDSAQNCFALIPKAPKKDVIKMLVNDNKVLRYLAVLESPIPEDKDRRFVFSYFLATDMISIFEPPVRNSGIIGGKYLGRTKVVKPYSTVDNPVYYGPSDFFIGAVIEVFGHRFIILDTDEYVLKYMESNAAQYSPEALASIQNHVRKREAPAPEAESKQTEKDPGVQELEALIDTIQKQLKDHSCKDNIREAFQIYDKEASGYVDRDMFFKICESLNVPVDDSLVKELIRMCSHGEGKINYYNFVRAFSN

Variants of B1 are the subject of one experiment. As to conditions: with adip_human SSX2IP.
For L107V, the “effect of a mutation on the interaction” value is “with no effect”.

The variants in another experiment derive from B2. As to conditions: with khdr3_human KHDRBS3, O75525.
For L107V, the “effect of a mutation on the interaction” value is reported as “with no effect”.

Variants of B3 are the subject of the next experiment. As to conditions: with ikzf3_human IKZF3, Q9UKT9.
Target sequence in this assay (Q9UKT9 whole entry): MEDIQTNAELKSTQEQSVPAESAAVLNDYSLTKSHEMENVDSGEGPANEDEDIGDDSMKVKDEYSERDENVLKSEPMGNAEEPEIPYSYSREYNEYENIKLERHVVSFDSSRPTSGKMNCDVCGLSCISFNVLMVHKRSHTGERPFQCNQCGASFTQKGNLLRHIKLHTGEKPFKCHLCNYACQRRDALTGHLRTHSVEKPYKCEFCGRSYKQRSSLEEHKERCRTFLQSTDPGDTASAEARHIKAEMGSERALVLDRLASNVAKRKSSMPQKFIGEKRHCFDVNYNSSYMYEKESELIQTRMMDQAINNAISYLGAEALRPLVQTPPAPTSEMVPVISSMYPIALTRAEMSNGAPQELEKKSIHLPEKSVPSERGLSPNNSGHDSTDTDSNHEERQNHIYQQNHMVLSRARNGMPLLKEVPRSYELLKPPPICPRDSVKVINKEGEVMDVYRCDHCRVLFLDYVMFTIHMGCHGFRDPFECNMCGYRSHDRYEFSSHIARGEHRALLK
In the case of W94R, the “effect of a mutation on the interaction” value was “disrupting interaction strength”.

The variants in another experiment derive from B3. As to conditions: with pak5_human PAK5, Q9P286.
For W94R, the “effect of a mutation on the interaction” value is listed as “disrupting interaction strength”.

The variants in the next experiment derive from B3. The note with it: with maga6_human MAGEA6, P43360.
Turning to W94R, the “effect of a mutation on the interaction” value is given as “disrupting interaction strength”.

The variants in a further experiment derive from B3. As to conditions: with lzts2_human LZTS2, Q9BRK4.
As for W94R, the “effect of a mutation on the interaction” value is listed as “disrupting interaction strength”.

The next experiment covers variants of B3. The note with it: with KRT40, Q6A162.
Consider W94R, for which the “effect of a mutation on the interaction” value is given as “disrupting interaction strength”.

In the next experiment the parent is B3. The note with it: with rpia_human RPIA.
With W94R, the “effect of a mutation on the interaction” value is “disrupting interaction strength”.

The variants in a further experiment derive from B3. The note with it: with ews_human EWSR1, Q01844.
In the case of W94R, the “effect of a mutation on the interaction” value is given as “disrupting interaction strength”.

Variants of B4 are the subject of the next experiment. As to conditions: with FBP2, O00757.
Turning to R218K, the “effect of a mutation on the interaction” value is listed as “with no effect”.
Same read-out and setting: the same measure for G260R: “disrupting interaction strength”.
In the case of F194S, the “effect of a mutation on the interaction” value was “disrupting interaction strength”.
Still for that read-out and setting: to F233I belongs “with no effect”.

The variants in the next experiment derive from B4. As to conditions: with FBP2, O00757. This is another data set of the same source.
For N213K, the “effect of a mutation on the interaction” value was “with no effect”.
On the same count and under the same terms, the same measure for G260R: “with no effect”.
Same read-out and setting: to G164S belongs “with no effect”.
Same read-out and setting: the same measure for F194S: “with no effect”.

In a further experiment the parent is B5. As to conditions: with acd_human ACD.
With P236S, the “effect of a mutation on the interaction” value was “disrupting interaction strength”.

The next experiment covers variants of B6. The note with it: with xiap_human XIAP.
Regarding P501L, the “effect of a mutation on the interaction” value is reported as “disrupting interaction strength”.
On the same count and under the same terms, to V410I belongs “disrupting interaction strength”.

The variants in the next experiment derive from B7. The note with it: with ikzf3_human IKZF3, Q9UKT9.
Target sequence in this assay (Q9UKT9 whole entry): as above
Turning to T508R, the “effect of a mutation on the interaction” value is reported as “with no effect”.
On the same count and under the same terms, the same measure for A394S: “disrupting interaction strength”; for R159W: “with no effect”; for P77T: “disrupting interaction strength”.

The variants in another experiment derive from B7. The note with it: with kctd4_human KCTD4, Q8WVF5.
Sequence of kctd4_human KCTD4, Q8WVF5 (Q8WVF5 whole entry): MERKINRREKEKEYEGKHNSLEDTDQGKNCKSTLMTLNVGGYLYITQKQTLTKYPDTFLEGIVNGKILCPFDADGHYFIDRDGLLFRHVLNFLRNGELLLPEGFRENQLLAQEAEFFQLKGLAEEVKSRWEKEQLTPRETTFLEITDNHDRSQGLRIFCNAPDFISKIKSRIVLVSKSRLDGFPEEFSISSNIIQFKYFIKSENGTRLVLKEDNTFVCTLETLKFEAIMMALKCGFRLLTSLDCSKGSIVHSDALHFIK
With T508R, the “effect of a mutation on the interaction” value was “with no effect”.
The same measure, in the same setting: the same measure for A394S: “disrupting interaction strength”; for R159W: “with no effect”.
Still for that read-out and setting: to P77T belongs “disrupting interaction strength”.

The next experiment covers variants of B7. As to conditions: with rim3a_human RIMBP3, Q9UFD9.
Sequence of rim3a_human RIMBP3, Q9UFD9 (Q9UFD9 whole entry): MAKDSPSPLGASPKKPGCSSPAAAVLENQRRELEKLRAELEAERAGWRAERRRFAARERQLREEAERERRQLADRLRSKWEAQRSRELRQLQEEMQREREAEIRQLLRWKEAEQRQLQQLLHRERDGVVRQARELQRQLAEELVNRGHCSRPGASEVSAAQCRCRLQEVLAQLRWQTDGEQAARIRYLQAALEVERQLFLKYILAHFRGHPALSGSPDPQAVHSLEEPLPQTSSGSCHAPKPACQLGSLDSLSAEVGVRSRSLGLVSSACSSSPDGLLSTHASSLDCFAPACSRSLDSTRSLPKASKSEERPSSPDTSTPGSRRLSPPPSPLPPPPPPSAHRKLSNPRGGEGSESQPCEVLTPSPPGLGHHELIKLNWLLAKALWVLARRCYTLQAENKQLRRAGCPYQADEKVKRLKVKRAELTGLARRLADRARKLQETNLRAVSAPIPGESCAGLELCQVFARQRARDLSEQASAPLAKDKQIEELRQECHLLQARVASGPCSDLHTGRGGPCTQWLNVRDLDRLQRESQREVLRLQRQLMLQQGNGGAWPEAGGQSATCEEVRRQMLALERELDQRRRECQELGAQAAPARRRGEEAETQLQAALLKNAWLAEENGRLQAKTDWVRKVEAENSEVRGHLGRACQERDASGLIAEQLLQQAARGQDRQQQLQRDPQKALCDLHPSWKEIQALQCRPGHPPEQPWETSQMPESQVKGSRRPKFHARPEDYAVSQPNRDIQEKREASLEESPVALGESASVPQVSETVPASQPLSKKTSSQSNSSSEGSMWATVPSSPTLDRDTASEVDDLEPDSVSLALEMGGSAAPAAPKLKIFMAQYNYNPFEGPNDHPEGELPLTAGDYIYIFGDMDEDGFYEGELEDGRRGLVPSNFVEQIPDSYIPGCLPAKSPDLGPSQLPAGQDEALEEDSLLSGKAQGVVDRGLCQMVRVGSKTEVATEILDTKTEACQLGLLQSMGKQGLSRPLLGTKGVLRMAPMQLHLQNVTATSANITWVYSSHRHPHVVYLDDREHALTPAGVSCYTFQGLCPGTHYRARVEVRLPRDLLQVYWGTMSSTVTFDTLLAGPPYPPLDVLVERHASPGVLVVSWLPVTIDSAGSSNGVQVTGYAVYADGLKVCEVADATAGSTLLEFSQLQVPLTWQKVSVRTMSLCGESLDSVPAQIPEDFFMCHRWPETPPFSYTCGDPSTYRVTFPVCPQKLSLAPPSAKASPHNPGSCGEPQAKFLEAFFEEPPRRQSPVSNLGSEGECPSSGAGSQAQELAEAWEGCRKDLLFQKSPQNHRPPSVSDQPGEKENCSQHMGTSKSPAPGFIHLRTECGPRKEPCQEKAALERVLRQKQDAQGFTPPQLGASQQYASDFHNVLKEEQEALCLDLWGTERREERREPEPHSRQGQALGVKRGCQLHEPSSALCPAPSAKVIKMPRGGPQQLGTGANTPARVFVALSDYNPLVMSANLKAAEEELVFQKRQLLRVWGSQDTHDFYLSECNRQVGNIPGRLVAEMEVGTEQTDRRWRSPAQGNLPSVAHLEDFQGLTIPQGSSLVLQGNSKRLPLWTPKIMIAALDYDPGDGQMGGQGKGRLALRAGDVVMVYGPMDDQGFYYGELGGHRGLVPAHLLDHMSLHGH
In the case of T508R, the “effect of a mutation on the interaction” value is “with no effect”.
Still for that read-out and setting: to A394S belongs “disrupting interaction strength”; to R159W, “with no effect”; to P77T, “disrupting interaction strength”.

Variants of B7 are the subject of a further experiment. The note with it: with trip6_human TRIP6, Q15654.
Sequence of trip6_human TRIP6, Q15654 (Q15654 whole entry): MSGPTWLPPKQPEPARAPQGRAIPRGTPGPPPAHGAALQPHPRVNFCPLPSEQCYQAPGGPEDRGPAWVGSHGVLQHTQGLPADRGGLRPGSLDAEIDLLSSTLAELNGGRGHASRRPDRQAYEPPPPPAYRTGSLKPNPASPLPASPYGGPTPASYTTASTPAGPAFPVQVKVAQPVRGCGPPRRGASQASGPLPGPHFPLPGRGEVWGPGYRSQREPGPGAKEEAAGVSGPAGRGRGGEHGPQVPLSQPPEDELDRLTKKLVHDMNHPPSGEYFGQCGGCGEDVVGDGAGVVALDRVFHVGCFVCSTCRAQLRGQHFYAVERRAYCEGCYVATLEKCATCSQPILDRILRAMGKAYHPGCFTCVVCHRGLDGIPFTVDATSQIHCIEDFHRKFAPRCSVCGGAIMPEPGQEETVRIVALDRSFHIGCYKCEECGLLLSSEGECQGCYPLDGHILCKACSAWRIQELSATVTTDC
Take T508R: the “effect of a mutation on the interaction” value is reported as “with no effect”.
On the same count and under the same terms, to A394S belongs “disrupting interaction strength”.
Take R159W: the “effect of a mutation on the interaction” value is reported as “with no effect”.
On the same count and under the same terms, the same measure for P77T: “disrupting interaction strength”.

The variants in a further experiment derive from B7. The note with it: with KRT15, P19012.
Sequence of KRT15, P19012 (P19012 whole entry): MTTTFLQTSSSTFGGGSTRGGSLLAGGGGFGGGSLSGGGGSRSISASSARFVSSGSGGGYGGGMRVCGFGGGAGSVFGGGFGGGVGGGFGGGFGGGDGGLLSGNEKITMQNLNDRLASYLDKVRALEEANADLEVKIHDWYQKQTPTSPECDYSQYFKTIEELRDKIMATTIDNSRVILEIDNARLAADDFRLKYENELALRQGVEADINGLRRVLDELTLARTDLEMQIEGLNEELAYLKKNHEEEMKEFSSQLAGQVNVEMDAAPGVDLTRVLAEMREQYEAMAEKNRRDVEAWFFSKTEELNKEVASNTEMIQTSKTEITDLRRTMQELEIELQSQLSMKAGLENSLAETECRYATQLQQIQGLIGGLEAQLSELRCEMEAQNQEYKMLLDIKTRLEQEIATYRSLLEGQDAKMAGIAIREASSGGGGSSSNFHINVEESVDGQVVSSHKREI
With T508R, the “effect of a mutation on the interaction” value is recorded as “with no effect”.
Turning to A394S, the “effect of a mutation on the interaction” value is “disrupting interaction strength”.
Still for that read-out and setting: to R159W belongs “with no effect”; to P77T, “disrupting interaction strength”.

The variants in the next experiment derive from B7. As to conditions: with TCF4, P15884-3.
Sequence of TCF4, P15884-3 (P15884 other isoform, or with tags, fused parts or gaps): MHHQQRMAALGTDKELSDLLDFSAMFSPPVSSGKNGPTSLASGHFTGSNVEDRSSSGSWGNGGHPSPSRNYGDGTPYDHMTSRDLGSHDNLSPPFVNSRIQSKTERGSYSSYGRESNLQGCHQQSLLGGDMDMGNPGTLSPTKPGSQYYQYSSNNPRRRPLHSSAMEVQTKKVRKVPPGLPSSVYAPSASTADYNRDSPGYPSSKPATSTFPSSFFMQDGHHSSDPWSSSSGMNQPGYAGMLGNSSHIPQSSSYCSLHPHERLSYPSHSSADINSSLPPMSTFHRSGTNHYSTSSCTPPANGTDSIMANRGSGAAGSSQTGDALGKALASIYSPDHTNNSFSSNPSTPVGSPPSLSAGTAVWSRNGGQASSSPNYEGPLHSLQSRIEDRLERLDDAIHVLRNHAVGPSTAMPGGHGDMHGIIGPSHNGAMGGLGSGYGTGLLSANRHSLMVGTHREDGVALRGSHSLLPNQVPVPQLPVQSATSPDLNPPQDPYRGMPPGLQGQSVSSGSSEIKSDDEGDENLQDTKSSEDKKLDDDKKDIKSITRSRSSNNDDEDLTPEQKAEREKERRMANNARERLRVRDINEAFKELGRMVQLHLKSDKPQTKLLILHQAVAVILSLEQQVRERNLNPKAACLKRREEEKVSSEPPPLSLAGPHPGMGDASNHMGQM
For T508R, the “effect of a mutation on the interaction” value is “disrupting interaction strength”.
Still for that read-out and setting: the same measure for A394S: “disrupting interaction strength”; for R159W: “with no effect”; for P77T: “disrupting interaction strength”.

The next experiment covers variants of B7. As to conditions: with goga2_human GOLGA2, Q08379.
Sequence of goga2_human GOLGA2, Q08379 (Q08379 whole entry): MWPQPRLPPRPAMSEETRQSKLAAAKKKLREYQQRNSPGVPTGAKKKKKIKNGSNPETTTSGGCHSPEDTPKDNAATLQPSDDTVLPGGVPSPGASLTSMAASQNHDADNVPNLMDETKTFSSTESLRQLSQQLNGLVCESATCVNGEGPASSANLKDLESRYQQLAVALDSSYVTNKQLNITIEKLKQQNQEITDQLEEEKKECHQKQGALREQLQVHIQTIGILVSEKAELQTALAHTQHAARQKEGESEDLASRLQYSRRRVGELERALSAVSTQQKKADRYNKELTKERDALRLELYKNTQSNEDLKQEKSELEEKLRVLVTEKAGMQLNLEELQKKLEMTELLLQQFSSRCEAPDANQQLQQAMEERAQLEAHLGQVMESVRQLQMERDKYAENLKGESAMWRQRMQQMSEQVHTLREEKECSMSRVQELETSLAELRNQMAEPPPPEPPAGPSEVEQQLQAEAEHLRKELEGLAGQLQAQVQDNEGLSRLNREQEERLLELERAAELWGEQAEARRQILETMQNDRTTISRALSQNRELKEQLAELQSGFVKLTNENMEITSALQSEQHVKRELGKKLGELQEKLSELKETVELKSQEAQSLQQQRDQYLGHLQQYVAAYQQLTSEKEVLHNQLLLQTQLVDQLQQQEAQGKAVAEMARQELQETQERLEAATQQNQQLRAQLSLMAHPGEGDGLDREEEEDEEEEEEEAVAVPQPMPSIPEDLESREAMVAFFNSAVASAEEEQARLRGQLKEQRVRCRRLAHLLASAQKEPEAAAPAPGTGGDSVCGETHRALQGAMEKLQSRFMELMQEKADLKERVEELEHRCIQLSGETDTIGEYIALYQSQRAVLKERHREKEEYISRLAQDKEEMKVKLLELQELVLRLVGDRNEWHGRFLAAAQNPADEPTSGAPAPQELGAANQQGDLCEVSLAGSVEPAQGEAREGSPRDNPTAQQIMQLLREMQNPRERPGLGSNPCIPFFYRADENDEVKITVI
T508R: the “effect of a mutation on the interaction” value is “with no effect”.
On the same count and under the same terms, the same measure for A394S: “disrupting interaction strength”; for R159W: “with no effect”.
On the same count and under the same terms, to P77T belongs “disrupting interaction strength”.
